Results from PMC3888430, “Sorcin Links Calcium Signaling to Vesicle Trafficking, Regulates Polo-Like Kinase 1 and Is Necessary for Mitosis” (PLoS ONE, 2014).

Legend:
Assay in all cases: peptide or protein array; ProtoArray human protein microarray (proteins arrayed in duplicate on nitrocellulose coated glass slide, native conditions) probed with 1 µM AlexaFluor 532-A2C sorcin in the presence of either 1 mM EDTA or 1 mM CaCl2
Settings in all cases: both partners purified
[1] = target: T1, Aurora B kinase, human, on ProtoArray (human, UniProt Q96GD4 1-344)
T1 construct: Aurora B kinase, human, full length protein of the ProtoArray; source: bought: ProtoArray human protein microarray (Life technologies), individually purified and arrayed

[2] = target: T2, CSNK2A1, human, on ProtoArray (human, UniProt P68400 1-391)
T2 construct: CSNK2A1 (casein kinase II subunit alpha), human, full length protein of the ProtoArray; source: bought: ProtoArray human protein microarray (Life technologies), individually purified and arrayed

[3] = target: T3, Annexin 11, human, on ProtoArray (human, UniProt P50995 1-505)
T3 construct: Annexin 11, human, full length protein of the ProtoArray; source: bought: ProtoArray human protein microarray (Life technologies), individually purified and arrayed

[4] = target: T4, CSNK2A2, human, on ProtoArray (human, UniProt P19784 1-350)
T4 construct: CSNK2A2 (casein kinase II subunit alpha'), human, full length protein of the ProtoArray; source: bought: ProtoArray human protein microarray (Life technologies), individually purified and arrayed

[5] = target: T5, Polo-like kinase 1 (PLK1), human, on ProtoArray (human, UniProt P53350 1-603)
T5 construct: Polo-like kinase 1, human, full length protein of the ProtoArray; In the functional row this id stands for purified recombinant PLK1 bought from Cell Signaling Technology (#7728); source: bought: ProtoArray human protein microarray (Life technologies), individually purified and arrayed

[6] = target: T6, Aurora A kinase, human, on ProtoArray (human, UniProt O14965 1-403)
T6 construct: Aurora A kinase, human, full length protein of the ProtoArray; source: bought: ProtoArray human protein microarray (Life technologies), individually purified and arrayed
T6 sequence (looked up): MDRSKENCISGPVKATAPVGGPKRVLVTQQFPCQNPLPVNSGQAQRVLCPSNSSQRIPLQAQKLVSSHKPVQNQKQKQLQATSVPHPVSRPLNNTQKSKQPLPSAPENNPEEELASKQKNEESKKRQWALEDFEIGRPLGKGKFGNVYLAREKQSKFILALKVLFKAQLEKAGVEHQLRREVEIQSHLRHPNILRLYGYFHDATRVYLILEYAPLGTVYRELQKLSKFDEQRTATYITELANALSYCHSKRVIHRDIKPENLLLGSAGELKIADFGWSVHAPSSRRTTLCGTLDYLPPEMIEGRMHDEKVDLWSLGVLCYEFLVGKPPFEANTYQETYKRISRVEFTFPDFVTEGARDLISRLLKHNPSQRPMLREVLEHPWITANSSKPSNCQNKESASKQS

T1 sequence (Q96GD4 whole entry): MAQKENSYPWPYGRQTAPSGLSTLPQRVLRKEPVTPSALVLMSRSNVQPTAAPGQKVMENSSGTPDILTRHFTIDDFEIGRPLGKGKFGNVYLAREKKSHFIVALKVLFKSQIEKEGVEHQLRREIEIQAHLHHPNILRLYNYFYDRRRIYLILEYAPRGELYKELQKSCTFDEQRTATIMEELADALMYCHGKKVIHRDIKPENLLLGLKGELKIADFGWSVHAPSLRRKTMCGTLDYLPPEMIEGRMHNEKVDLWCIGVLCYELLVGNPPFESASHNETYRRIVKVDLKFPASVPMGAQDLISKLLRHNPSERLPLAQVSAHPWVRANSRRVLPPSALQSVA
T5 sequence (P53350 whole entry): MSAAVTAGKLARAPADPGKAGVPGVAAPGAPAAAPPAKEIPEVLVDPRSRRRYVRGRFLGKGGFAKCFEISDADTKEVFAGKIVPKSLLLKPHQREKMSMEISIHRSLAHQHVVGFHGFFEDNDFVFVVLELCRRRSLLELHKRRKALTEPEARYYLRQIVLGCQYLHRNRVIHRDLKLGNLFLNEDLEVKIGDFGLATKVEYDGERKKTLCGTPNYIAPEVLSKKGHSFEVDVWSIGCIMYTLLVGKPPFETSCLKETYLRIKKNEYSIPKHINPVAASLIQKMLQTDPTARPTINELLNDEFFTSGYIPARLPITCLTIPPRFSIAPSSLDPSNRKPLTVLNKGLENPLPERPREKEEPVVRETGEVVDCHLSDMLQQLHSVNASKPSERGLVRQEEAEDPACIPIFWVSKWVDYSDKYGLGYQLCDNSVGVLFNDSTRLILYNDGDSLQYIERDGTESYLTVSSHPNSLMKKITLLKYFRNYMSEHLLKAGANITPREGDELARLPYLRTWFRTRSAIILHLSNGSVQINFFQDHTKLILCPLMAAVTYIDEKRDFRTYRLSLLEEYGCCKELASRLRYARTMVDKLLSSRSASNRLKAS
T2 sequence (P68400 whole entry): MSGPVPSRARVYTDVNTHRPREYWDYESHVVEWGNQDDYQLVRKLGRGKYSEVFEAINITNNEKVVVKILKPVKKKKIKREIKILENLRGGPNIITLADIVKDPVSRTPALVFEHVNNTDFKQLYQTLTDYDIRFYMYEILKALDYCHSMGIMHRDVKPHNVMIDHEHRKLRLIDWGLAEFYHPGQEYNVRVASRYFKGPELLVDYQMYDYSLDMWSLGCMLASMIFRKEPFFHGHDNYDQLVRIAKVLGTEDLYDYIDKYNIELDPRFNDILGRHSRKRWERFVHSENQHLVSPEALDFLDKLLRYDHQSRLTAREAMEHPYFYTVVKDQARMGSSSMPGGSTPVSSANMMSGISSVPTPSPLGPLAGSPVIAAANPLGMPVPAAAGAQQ
T4 sequence (P19784 whole entry): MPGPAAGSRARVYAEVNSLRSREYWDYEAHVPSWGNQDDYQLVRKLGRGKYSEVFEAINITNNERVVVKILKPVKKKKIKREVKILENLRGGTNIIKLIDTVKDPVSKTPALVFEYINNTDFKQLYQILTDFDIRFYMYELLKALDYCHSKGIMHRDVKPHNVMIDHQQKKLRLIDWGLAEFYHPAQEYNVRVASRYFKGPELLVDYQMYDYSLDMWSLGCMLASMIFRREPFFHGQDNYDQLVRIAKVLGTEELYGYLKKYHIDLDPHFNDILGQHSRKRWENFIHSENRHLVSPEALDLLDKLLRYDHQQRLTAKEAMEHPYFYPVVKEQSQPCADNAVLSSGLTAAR
T3 sequence (P50995 whole entry): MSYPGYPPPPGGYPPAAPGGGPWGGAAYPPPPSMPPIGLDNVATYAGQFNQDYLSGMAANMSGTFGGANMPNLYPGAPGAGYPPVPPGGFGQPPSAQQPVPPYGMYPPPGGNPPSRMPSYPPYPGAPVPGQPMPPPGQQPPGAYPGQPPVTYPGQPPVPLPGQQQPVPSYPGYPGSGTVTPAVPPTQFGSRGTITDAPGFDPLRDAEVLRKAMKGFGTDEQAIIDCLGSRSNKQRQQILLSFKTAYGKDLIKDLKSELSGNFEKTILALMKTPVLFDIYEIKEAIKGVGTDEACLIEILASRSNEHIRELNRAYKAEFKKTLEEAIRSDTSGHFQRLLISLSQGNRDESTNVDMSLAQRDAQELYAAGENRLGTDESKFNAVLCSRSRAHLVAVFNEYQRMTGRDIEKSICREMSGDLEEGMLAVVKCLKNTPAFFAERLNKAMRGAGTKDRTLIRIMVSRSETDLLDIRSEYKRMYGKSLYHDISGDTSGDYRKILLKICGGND

binding result [1]: binds
binding result [2]: binds
binding result [3]: binds
binding result [4]: binds
fold increase of the interaction with 1 mM calcium against EDTA [5]: 1.5 fold
binding result [6]: binds
B1: AlexaFluor 532-A2C sorcin (natural protein, human)
chain: MCYPGHPGAGGGYYPGGYGGAPGGPAFPGQTQDPLYGYFAAVAGQDGQIDADELQRCLTQSGIAGGYKPFNLETCRLMVSMLDRDMSGTMGFNEFKELWAVLNGWRQHFISFDTDRSGTVDPQELQKALTTMGFRLSPQAVNSIAKRYSTNGKITFDDYIACCVKLRALTDSFRRRDTAQQGVVNFPYDDFIQCVMSV
modifications: AlexaFluor 532 C5-maleimide on thiol groups (A2C mutant made for the conjugation)
notes: In the functional row this id stands for unlabelled human wt sorcin (HS) from the same expression system; also called A2C-sorcin-AlexaFluor 532 maleimide; source: E. coli BL21(DE3), purified according to Meyers et al; labelled with AlexaFluor 532 C5-maleimide
